Experiment [1] addresses T1, human calcitonin receptor (human, UniProt P30988 25-474).
T1 construct: whole, on cells; Assay used cell membranes, not intact cells; also called hCTR; hCT
T1 sequence (looked up): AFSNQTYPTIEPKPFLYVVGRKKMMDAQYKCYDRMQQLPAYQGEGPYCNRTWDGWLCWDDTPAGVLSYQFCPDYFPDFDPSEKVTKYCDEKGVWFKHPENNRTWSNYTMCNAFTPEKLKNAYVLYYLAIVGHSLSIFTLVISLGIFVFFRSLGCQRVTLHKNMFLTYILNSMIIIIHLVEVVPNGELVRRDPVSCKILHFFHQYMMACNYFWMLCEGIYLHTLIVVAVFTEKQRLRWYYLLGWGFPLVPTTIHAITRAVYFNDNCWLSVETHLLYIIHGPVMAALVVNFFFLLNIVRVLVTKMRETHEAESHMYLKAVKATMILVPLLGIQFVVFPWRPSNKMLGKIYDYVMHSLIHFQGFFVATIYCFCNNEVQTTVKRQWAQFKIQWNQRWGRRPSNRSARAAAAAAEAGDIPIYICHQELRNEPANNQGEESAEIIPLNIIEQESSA
Put plainly: SPA competition with 125I-calcitonin on membranes of BHK cells with human calcitonin receptor (Assay VII). In short, it runs like this: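 BHK hCTR membranes 35 ng/μL + SPA beads 0.05 mg/well; buffer 50 mM Hepes pH 7.4, 1 mM CaCl2, 5 mM MgCl₂, 0.1% OA, 0.02% Tween20. 120 min, 25° C., shaking. Scintillation count; IC50 by one-site binding competition.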

Experiment [2] has as its target T2, human amylin receptor (amylin 3(a) receptor: human calcitonin receptor with RAMP-3) (human, UniProt P30988 25-474; O60896 24-148).
T2 construct: whole, on cells; Assay used cell membranes of the Amylin 3(a)/CRE-luc BHK cells, not intact cells; also called hAmylin-R; hAmylinR
T2 sequence (looked up) 1: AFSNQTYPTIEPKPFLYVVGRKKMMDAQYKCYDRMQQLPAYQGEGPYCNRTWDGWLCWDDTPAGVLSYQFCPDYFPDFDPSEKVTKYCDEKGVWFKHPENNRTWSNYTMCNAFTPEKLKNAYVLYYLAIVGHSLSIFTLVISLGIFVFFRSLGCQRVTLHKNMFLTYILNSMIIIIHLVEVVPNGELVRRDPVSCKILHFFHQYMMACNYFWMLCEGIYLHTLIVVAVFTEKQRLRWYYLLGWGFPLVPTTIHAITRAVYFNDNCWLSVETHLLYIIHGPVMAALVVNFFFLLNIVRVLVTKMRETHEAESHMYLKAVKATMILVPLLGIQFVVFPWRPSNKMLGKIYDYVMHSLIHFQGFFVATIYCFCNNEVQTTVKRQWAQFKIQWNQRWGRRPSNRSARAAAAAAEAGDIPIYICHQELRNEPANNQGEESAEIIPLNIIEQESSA
T2 sequence (looked up) 2: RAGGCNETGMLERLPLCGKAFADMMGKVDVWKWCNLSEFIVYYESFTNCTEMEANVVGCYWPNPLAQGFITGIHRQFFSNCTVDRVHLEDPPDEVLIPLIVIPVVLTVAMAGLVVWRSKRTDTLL
Put plainly: SPA competition with 125I-rat amylin on membranes of BHK cells with human calcitonin receptor and RAMP-3 (Assay V). In outline: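 SPA beads + BHK amylin 3(a)/CRE-luc membranes, 35 ng/μL final; buffer 50 mM Hepes pH 7.4, 1 mM CaCl2, 5 mM MgCl₂, 0.1% OA, 0.02% Tween20. 120 min, 25° C, shaken; scintillation count. IC₅₀ by one-site binding competition fit, taken as receptor affinity.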

Experiment [3] has as its target T1, human calcitonin receptor. As to the kind of experiment: ratio IC50 hCTR / IC50 hAmylin-R (reference: human amylin receptor), SPA competition assays. In outline: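 Membranes (35 ng/μL final) + SPA beads, 50 mM Hepes pH 7.4 buffer with 1 mM CaCl2, 5 mM MgCl₂, 0.1% OA, 0.02% Tween20; 120 min, 25° C, shaking; centrifuged, counted; IC₅₀ by one-site binding competition.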

From patent publication US20140087995A1 (published 2014) come the findings set out here.

The term IC50 denotes the concentration at which inhibition is half-maximal.

Numbered stars: 1 amine (or outer) side, 2 acyl side, 3 side chain; on linkers, the order of the positions; unused ones are H or OH. Bridge positions count the residues as written; N and C are the ends. Side chains are listed from the residue outwards. Ends that are not written are not given here. * marks the point of attachment. C20 diacid = O=C(O)CCCCCCCCCCCCCCCCCCC(=O)*; γGlu = O=C(O)[C@H](CCC(=O)[*:2])N[*:1]; AEEA = NCCOCCOCC(=O)O

B1: N^ε1-[2-[2-[2-[[(4S)-4-carboxy-4-(19-carboxynonadecanoylamino)butanoyl]amino]ethoxy]ethoxy]acetyl]-[Arg17,Pro21,Pro27,Arg34]-h-amylin (peptide)
peptide: K([AEEA-γGlu-C20 diacid])CNTATCATQRLANFLRHSSPNFGAIPSSTNVGRNTY-NH2
modifications: disulfide 2-7; N-terminus assumed
SMILES: CC[C@H](C)[C@H](NC(=O)[C@H](C)NC(=O)CNC(=O)[C@H](Cc1ccccc1)NC(=O)[C@H](CC(N)=O)NC(=O)[C@@H]1CCCN1C(=O)[C@H](CO)NC(=O)[C@H](CO)NC(=O)[C@H](Cc1c[nH]cn1)NC(=O)[C@H](CCCNC(=N)N)NC(=O)[C@H](CC(C)C)NC(=O)[C@H](Cc1ccccc1)NC(=O)[C@H](CC(N)=O)NC(=O)[C@H](C)NC(=O)[C@H](CC(C)C)NC(=O)[C@H](CCCNC(=N)N)NC(=O)[C@H](CCC(N)=O)NC(=O)[C@@H](NC(=O)[C@H](C)NC(=O)[C@@H]1CSSC[C@H](NC(=O)[C@@H](N)CCCCNC(=O)COCCOCCNC(=O)CC[C@H](NC(=O)CCCCCCCCCCCCCCCCCCC(=O)O)C(=O)O)C(=O)N[C@@H](CC(N)=O)C(=O)N[C@@H]([C@@H](C)O)C(=O)N[C@@H](C)C(=O)N[C@@H]([C@@H](C)O)C(=O)N1)[C@@H](C)O)C(=O)N1CCC[C@H]1C(=O)N[C@@H](CO)C(=O)N[C@@H](CO)C(=O)N[C@H](C(=O)N[C@@H](CC(N)=O)C(=O)N[C@H](C(=O)NCC(=O)N[C@@H](CCCNC(=N)N)C(=O)N[C@@H](CC(N)=O)C(=O)N[C@H](C(=O)N[C@@H](Cc1ccc(O)cc1)C(N)=O)[C@@H](C)O)C(C)C)[C@@H](C)O
notes: also called compound 78
With B1, the IC50 in experiment [1] amounted to 36.5 nM; in experiment [2], 0.602 nM. In addition, the “Ratio hCT/hAmylin binding” value in experiment [3] came out at 60.7.

B2: N^ε1-[2-[2-[2-[[(4S)-4-carboxy-4-(19-carboxynonadecanoylamino)butanoyl]amino]ethoxy]ethoxy]acetyl]-[His14,Arg17,Pro21,Pro27,His34]-h-amylin (peptide)
peptide: K([AEEA-γGlu-C20 diacid])CNTATCATQRLAHFLRHSSPNFGAIPSSTNVGHNTY-NH2
modifications: disulfide 2-7; N-terminus assumed
SMILES: CC[C@H](C)[C@H](NC(=O)[C@H](C)NC(=O)CNC(=O)[C@H](Cc1ccccc1)NC(=O)[C@H](CC(N)=O)NC(=O)[C@@H]1CCCN1C(=O)[C@H](CO)NC(=O)[C@H](CO)NC(=O)[C@H](Cc1c[nH]cn1)NC(=O)[C@H](CCCNC(=N)N)NC(=O)[C@H](CC(C)C)NC(=O)[C@H](Cc1ccccc1)NC(=O)[C@H](Cc1c[nH]cn1)NC(=O)[C@H](C)NC(=O)[C@H](CC(C)C)NC(=O)[C@H](CCCNC(=N)N)NC(=O)[C@H](CCC(N)=O)NC(=O)[C@@H](NC(=O)[C@H](C)NC(=O)[C@@H]1CSSC[C@H](NC(=O)[C@@H](N)CCCCNC(=O)COCCOCCNC(=O)CC[C@H](NC(=O)CCCCCCCCCCCCCCCCCCC(=O)O)C(=O)O)C(=O)N[C@@H](CC(N)=O)C(=O)N[C@@H]([C@@H](C)O)C(=O)N[C@@H](C)C(=O)N[C@@H]([C@@H](C)O)C(=O)N1)[C@@H](C)O)C(=O)N1CCC[C@H]1C(=O)N[C@@H](CO)C(=O)N[C@@H](CO)C(=O)N[C@H](C(=O)N[C@@H](CC(N)=O)C(=O)N[C@H](C(=O)NCC(=O)N[C@@H](Cc1c[nH]cn1)C(=O)N[C@@H](CC(N)=O)C(=O)N[C@H](C(=O)N[C@@H](Cc1ccc(O)cc1)C(N)=O)[C@@H](C)O)C(C)C)[C@@H](C)O
notes: also called compound 80
For the molecule B2, the concentration for half-maximal inhibition (IC50) came to 19.8 nM in experiment [1] and 0.29 nM in experiment [2]. Moreover, the “Ratio hCT/hAmylin binding” value in experiment [3] amounted to 68.1.

B3: N^ε1-[2-[2-[2-[[(4S)-4-carboxy-4-(19-carboxynonadecanoylamino)butanoyl]amino]ethoxy]ethoxy]acetyl]-[His14,Arg17,Pro21,Pro27,Arg34]-h-amylin (peptide)
peptide: K([AEEA-γGlu-C20 diacid])CNTATCATQRLAHFLRHSSPNFGAIPSSTNVGRNTY-NH2
modifications: disulfide 2-7; N-terminus assumed
SMILES: CC[C@H](C)[C@H](NC(=O)[C@H](C)NC(=O)CNC(=O)[C@H](Cc1ccccc1)NC(=O)[C@H](CC(N)=O)NC(=O)[C@@H]1CCCN1C(=O)[C@H](CO)NC(=O)[C@H](CO)NC(=O)[C@H](Cc1c[nH]cn1)NC(=O)[C@H](CCCNC(=N)N)NC(=O)[C@H](CC(C)C)NC(=O)[C@H](Cc1ccccc1)NC(=O)[C@H](Cc1c[nH]cn1)NC(=O)[C@H](C)NC(=O)[C@H](CC(C)C)NC(=O)[C@H](CCCNC(=N)N)NC(=O)[C@H](CCC(N)=O)NC(=O)[C@@H](NC(=O)[C@H](C)NC(=O)[C@@H]1CSSC[C@H](NC(=O)[C@@H](N)CCCCNC(=O)COCCOCCNC(=O)CC[C@H](NC(=O)CCCCCCCCCCCCCCCCCCC(=O)O)C(=O)O)C(=O)N[C@@H](CC(N)=O)C(=O)N[C@@H]([C@@H](C)O)C(=O)N[C@@H](C)C(=O)N[C@@H]([C@@H](C)O)C(=O)N1)[C@@H](C)O)C(=O)N1CCC[C@H]1C(=O)N[C@@H](CO)C(=O)N[C@@H](CO)C(=O)N[C@H](C(=O)N[C@@H](CC(N)=O)C(=O)N[C@H](C(=O)NCC(=O)N[C@@H](CCCNC(=N)N)C(=O)N[C@@H](CC(N)=O)C(=O)N[C@H](C(=O)N[C@@H](Cc1ccc(O)cc1)C(N)=O)[C@@H](C)O)C(C)C)[C@@H](C)O
notes: also called compound 84
Take B3: the IC50 is 88.9 nM in experiment [1] and 0.743 nM in experiment [2]. For the same molecule, the “Ratio hCT/hAmylin binding” value in experiment [3] is 120.

B4: N^ε1-[2-[2-[2-[[(4S)-4-carboxy-4-(19-carboxynonadecanoylamino)butanoyl]amino]ethoxy]ethoxy]acetyl]-[Arg17,Pro21,Pro27,His34]-h-amylin (peptide)
peptide: K([AEEA-γGlu-C20 diacid])CNTATCATQRLANFLRHSSPNFGAIPSSTNVGHNTY-NH2
modifications: disulfide 2-7; N-terminus assumed
SMILES: CC[C@H](C)[C@H](NC(=O)[C@H](C)NC(=O)CNC(=O)[C@H](Cc1ccccc1)NC(=O)[C@H](CC(N)=O)NC(=O)[C@@H]1CCCN1C(=O)[C@H](CO)NC(=O)[C@H](CO)NC(=O)[C@H](Cc1c[nH]cn1)NC(=O)[C@H](CCCNC(=N)N)NC(=O)[C@H](CC(C)C)NC(=O)[C@H](Cc1ccccc1)NC(=O)[C@H](CC(N)=O)NC(=O)[C@H](C)NC(=O)[C@H](CC(C)C)NC(=O)[C@H](CCCNC(=N)N)NC(=O)[C@H](CCC(N)=O)NC(=O)[C@@H](NC(=O)[C@H](C)NC(=O)[C@@H]1CSSC[C@H](NC(=O)[C@@H](N)CCCCNC(=O)COCCOCCNC(=O)CC[C@H](NC(=O)CCCCCCCCCCCCCCCCCCC(=O)O)C(=O)O)C(=O)N[C@@H](CC(N)=O)C(=O)N[C@@H]([C@@H](C)O)C(=O)N[C@@H](C)C(=O)N[C@@H]([C@@H](C)O)C(=O)N1)[C@@H](C)O)C(=O)N1CCC[C@H]1C(=O)N[C@@H](CO)C(=O)N[C@@H](CO)C(=O)N[C@H](C(=O)N[C@@H](CC(N)=O)C(=O)N[C@H](C(=O)NCC(=O)N[C@@H](Cc1c[nH]cn1)C(=O)N[C@@H](CC(N)=O)C(=O)N[C@H](C(=O)N[C@@H](Cc1ccc(O)cc1)C(N)=O)[C@@H](C)O)C(C)C)[C@@H](C)O
notes: also called compound 76
As to B4, the 50% inhibitory concentration (IC50) in experiment [1] amounted to 17.2 nM; in experiment [2] it was 0.215 nM. In addition, the “Ratio hCT/hAmylin binding” value in experiment [3] was found to be 80.

B5: N^ε1-[2-[2-[2-[[(4S)-4-carboxy-4-(19-carboxynonadecanoylamino)butanoyl]amino]ethoxy]ethoxy]acetyl]-[Thr14,Arg17,Pro21,Pro27,Pro31]-h-amylin (peptide)
peptide: K([AEEA-γGlu-C20 diacid])CNTATCATQRLATFLRHSSPNFGAIPSSTPVGSNTY-NH2
modifications: disulfide 2-7; N-terminus assumed
SMILES: CC[C@H](C)[C@H](NC(=O)[C@H](C)NC(=O)CNC(=O)[C@H](Cc1ccccc1)NC(=O)[C@H](CC(N)=O)NC(=O)[C@@H]1CCCN1C(=O)[C@H](CO)NC(=O)[C@H](CO)NC(=O)[C@H](Cc1c[nH]cn1)NC(=O)[C@H](CCCNC(=N)N)NC(=O)[C@H](CC(C)C)NC(=O)[C@H](Cc1ccccc1)NC(=O)[C@@H](NC(=O)[C@H](C)NC(=O)[C@H](CC(C)C)NC(=O)[C@H](CCCNC(=N)N)NC(=O)[C@H](CCC(N)=O)NC(=O)[C@@H](NC(=O)[C@H](C)NC(=O)[C@@H]1CSSC[C@H](NC(=O)[C@@H](N)CCCCNC(=O)COCCOCCNC(=O)CC[C@H](NC(=O)CCCCCCCCCCCCCCCCCCC(=O)O)C(=O)O)C(=O)N[C@@H](CC(N)=O)C(=O)N[C@@H]([C@@H](C)O)C(=O)N[C@@H](C)C(=O)N[C@@H]([C@@H](C)O)C(=O)N1)[C@@H](C)O)[C@@H](C)O)C(=O)N1CCC[C@H]1C(=O)N[C@@H](CO)C(=O)N[C@@H](CO)C(=O)N[C@H](C(=O)N1CCC[C@H]1C(=O)N[C@H](C(=O)NCC(=O)N[C@@H](CO)C(=O)N[C@@H](CC(N)=O)C(=O)N[C@H](C(=O)N[C@@H](Cc1ccc(O)cc1)C(N)=O)[C@@H](C)O)C(C)C)[C@@H](C)O
notes: also called compound 75
Take B5: the IC50 in experiment [1] was determined as 60.9 nM; in experiment [2] it was 0.666 nM. Also, in experiment [3], the “Ratio hCT/hAmylin binding” value was 91.4.
